The results in this text go back to patent US9974865B2, “Antibody drug conjugates (ADC) that bind to FLT3 proteins” (AGENSYS, INC., priority 2015, dated 2018).

Series [1] has as its system Raji cells. As to the kind of experiment: ADCC assay (CytoTox 96, LDH release), positive control cell line. Conditions: E:T=100:1, 2.5 ug/mL, 4 hours. The series is classed as cell-based, human.
Series [2] concerns the target cell surface FLT3 (Homo sapiens, UniProt P36888). In words: Binding to cell surface FLT3 by flow cytometry. From the text: To express CHv62.21 MAb recombinantly in transfected cells, v62.21 hybridoma MAb variable heavy and light chain sequences were cloned upstream of the human heavy chain IgG1 and human light chain Igκ constant regions respectively. The complete CHv62.21 MAb human heavy chain and light chain cassettes were cloned downstream of the CMV promoter/enhancer in a cloning vector. The recombinant CHv62.21 MAb expressing construct was transfected into CHO cells for stable expression in the Lonza GS system (Lonza, Basel, Switzerland). The CHv62.21 MAb secreted from recombinant CHO cells was purified and evaluated for binding to cell surface FLT3 by flow cytometry.
To express CHv62.21pAF recombinantly in transfected cells, v62-1b21 hybridoma MAb variable heavy and light chain sequences were cloned upstream of the human heavy chain IgG1 and human light chain Igκ constant regions respectively. The complete CHv62.21 MAb human heavy chain and light chain cassettes were cloned downstream of the CMV promoter/enhancer in a cloning vector. […] The CHv62.21pAF secreted from the stable subclone was purified and evaluated for binding to cell surface FLT3 by flow cytometry.
A general note: In flow cytometry, cells or beads pass a laser one at a time.

The subject of series [3] is RS-4-11 cells. Type of series: cell-based, human.
Protocol: Briefly, The RS-4-11 cells were seeded in 50 μl of complete media at a density of 3000 cells per well onto 96 well plates and placed in a tissue culture incubator at 37° C.; 5% CO2. The next day, the ADCs were prepared in complete media at 10 μg/mL and serially diluted 1:5 for a total of 9 points. […] At the end of the incubation period, 20 μl of Presto Blue was added to each well and incubated for 2 hours. The plates were read using a BioTek Synergy H4 plate reader using 540 Excitation and 590 Emission wavelengths and graphed using Graphpad Prism software.
The subject of series [4] is EOL-1 cells. As to the kind of experiment: EOL-1 growth with human FLT3 ligand and antibody (Cell Titer Glo, 5 days). Type of series: cell-based. As for the experimental part:
The ability of FLT3 antibodies (CHv62.21 and v62-1b37.1) to mediate the effect of human FLT3 ligand was evaluated using the human leukemia EOL-1 cell line, which endogenously expresses FLT3. Isotype control antibody (mLys-1c3.1) was also used. […] The next day, cells were treated with 50, 10 or 5 ng/mL of human FLT3 ligand (in 25 μl of complete media) and 10, 1, 0.1 and 0 μg/mL of test antibody (in 25 μl of complete media). Media alone was used as the untreated control. […] At the end of the incubation period, 100 μl of Cell Titer Glo was added to each well and incubated for 30 minutes, shaking, at room temperature.
(In ATP-based viability assays light output follows the ATP content of the culture.)

Consider Rituximab, for which the ADCC activity entry in series [1] is listed as “confirms ADCC activity”.

B1: v62-1b21: hybridoma FLT3 MAb from VelocImmune mice, fully human variable regions and mouse constant regions (antibody, V domains shown)
VH: EVQLVESGGGLVRPGGSLRLSCAASGFTFSGYSINWVRQAPGKGLEWVSSISSSSNYIYYADSVKGRFTISRDNAKNSLYLQMNSLRAEDTAVYYCAREGFIAGTTFDAFDIWGQGTMVTVSS
VL: DIQMTQSPSSLSASVGDRVTITCRASQGIRNDLGWYQQKPGKAPKRLIYAASSLQSGVPSRFSGSGSGTEFTLTISSLQPEDFATYYCLQHNGFPYTFGQGTKLEIKR
Take B1: in series [2], the “binding to cell surface FLT3” value is “specifically binds to Flt3 protein and Flt3 expressing cells”.

B2: v62-1b21.1-AGL-0129-08 (conjugate)
VH: EVQLVESGGGLVRPGGSLRLSCAASGFTFSGYSINWVRQAPGKGLEWVSSISSSSNYIYYADSVKGRFTISRDNAKNSLYLQMNSLRAEDTAVYYCAREGFIAGTTFDAFDIWGQGTMVTVSS
VL: DIQMTQSPSSLSASVGDRVTITCRASQGIRNDLGWYQQKPGKAPKRLIYAASSLQSGVPSRFSGSGSGTEFTLTISSLQPEDFATYYCLQHNGFPYTFGQGTKLEIKR
For the molecule B2, the cytotoxicity result in series [3] is “can induce cytotoxicity”.

B3: Human FLT3 ligand: human FLT3 ligand purchased from R and D Systems (protein)
chain: TQDCSFQHSPISSDFAVKIRELSDYLLQDYPVTVASNLQDEELCGGLWRLVLAQRWMERLKTVAGSKMQGLLERVNTEIHFVTKCAFQPPPSCLRFVQTNISRLLQETSEQLVALKPWITRQNFSRCLELQCQPDSSTLPPPWSPRPLEATAPTAPQPP
Take B3: the “effect on growth, FLT3 ligand alone” value in series [4] is reported as “no effect on growth”.
